Measurements as given in IntAct's records for PubMed 29892012.

B1: E3 ubiquitin-protein ligase DZIP3 (Homo sapiens), Q86Y13 (parent)
chain: MDSLPDEFFVRHPAVEDQRKEETENKLEKSSGQLNKQENDIPTDLVPVNLLLEVKKLLNAINTLPKGVVPHIKKFLQEDFSFQTMQREVAANSQNGEEIVPALTLRFLITQLEAALRNIQAGNYTAHQINIGYYLTLLFLYGVALTERGKKEDYTEAENKFLVMKMMIQENEICENFMSLVYFGRGLLRCAQKRYNGGLLEFHKSLQEIGDKNDHWFDIDPTEDEDLPTTFKDLLNNFIKTTESNIMKQTICSYLDCERSCEADILKNTSYKGFFQLMCSKSCCVYFHKICWKKFKNLKYPGENDQSFSGKKCLKEGCTGDMVRMLQCDVPGIVKILFEVVRKDEYITIENLGASYRKLISLKITDTDIRPKISLKFNTKDEMPIFKLDYNYFYHLLHIIIISGTDIVRQIFDEAMPPPLLKKELLIHKNVLESYYNHLWTNHPLGGSWHLLYPPNKELPQSKQFDLCLLLALIKHLNVFPAPKKGWNMEPPSSDISKSADILRLCKYRDILLSEILMNGLTESQFNSIWKKVSDILLRLGMMQEDIDKVKENPIENISLDYHQLSVYLGIPVPEIIQRMLSCYQQGIALQSITGSQRIEIEELQNEEEELSPPLMEYNINVKSHPEIQFAEINKDGTSIPSESSTESLKDLQEVKSKQRKKKKTKNKKNKDSKEDQVPYVVEKEEQLRKEQANPHSVSRLIKDDASDVQEDSAMEDKFYSLDELHILDMIEQGSAGKVTTDYGETEKERLARQRQLYKLHYQCEDFKRQLRTVTFRWQENQMQIKKKDKIIASLNQQVAFGINKVSKLQRQIHAKDNEIKNLKEQLSMKRSQWEMEKHNLESTMKTYVSKLNAETSRALTAEVYFLQCRRDFGLLHLEQTEKECLNQLARVTHMAASNLESLQLKAAVDSWNAIVADVRNKIAFLRTQYNEQINKVKQGFALSTLPPVQLPPPPPSPEILMQQFLGRPLVKESFFRPILTVPQMPAVCPGVVSATGQPRAPLMTGIAWALPAPVGDAVPPSAGLRSDPSIMNWERITDRLKTAFPQQTRKELTDFLRKLKDAYGKSLSELTFDEIVCKISQFIDPKKSQSQGKSVSNVNCVSPSHSPSQPDAAQPPKPAWRPLTSQGPATWEGASNPDEEEEEEEPCVICHENLSPENLSVLPCAHKFHAQCIRPWLMQQGTCPTCRLHVLLPEEFPGHPSRQLPKI
partner: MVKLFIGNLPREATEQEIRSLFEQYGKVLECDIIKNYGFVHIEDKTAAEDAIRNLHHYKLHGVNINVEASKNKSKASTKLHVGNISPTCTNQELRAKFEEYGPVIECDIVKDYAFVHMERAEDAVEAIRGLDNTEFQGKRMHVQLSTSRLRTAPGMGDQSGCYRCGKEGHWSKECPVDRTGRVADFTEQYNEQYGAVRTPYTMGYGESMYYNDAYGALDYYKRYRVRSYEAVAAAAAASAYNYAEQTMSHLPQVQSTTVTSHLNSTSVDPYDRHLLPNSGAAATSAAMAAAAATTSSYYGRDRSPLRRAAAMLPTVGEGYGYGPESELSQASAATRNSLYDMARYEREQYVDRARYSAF
B2: Coiled-coil domain-containing protein 14 (Homo sapiens), Q49A88 (parent)
chain: MKRGIRRDPFRKRKLGGRAKKVREPTAVNSFYREASLPSVWASLRRREMVRSGARPGQVLSSGRHTGPAKLTNGKKATYLRKIPRFNADSGYSIHSDSESQAETVHGLDGCASLLRDILRNEDSGSETAYLENRSNSRPLESKRYGSKKKRHEKHTIPLVVQKETSSSDNKKQIPNEASARSERDTSDLEQNWSLQDHYRMYSPIIYQALCEHVQTQMSLMNDLTSKNIPNGIPAVPCHAPSHSESQATPHSSYGLCTSTPVWSLQRPPCPPKVHSEVQTDGNSQFASQGKTVSATCTDVLRNSFNTSPGVPCSLPKTDISAIPTLQQLGLVNGILPQQGIHKETDLLKCIQTYLSLFRSHGKETHLDSQTHRSPTQSQPAFLATNEEKCAREQIREATSERKDLNIHVRDTKTVKDVQKAKNVNKTAEKVRIIKYLLGELKALVAEQEDSEIQRLITEMEACISVLPTVSGNTDIQVEIALAMQPLRSENAQLRRQLRILNQQLREQQKTQKPSGAVDCNLELFSLQSLNMSLQNQLEESLKSQELLQSKNEELLKVIENQKDENKKFSSIFKDKDQTILENKQQYDIEITRIKIELEEALVNVKSSQFKLETAEKENQILGITLRQRDAEVTRLRELTRTLQTSMAKLLSDLSVDSARCKPGNNLTKSLLNIHDKQLQHDPAPAHTSIMSYLNKLETNYSFTHSEPLSTIKNEETIEPDKTYENVLSSRGPQNSNTRGMEEASAPGIISALSKQDSDEGSETMALIEDEHNLDNTIYIPFARSTPEKKSPLSKRLSPQPQIRAATTQLVSNSGLAVSGKENKLCTPVICSSSTKEAEDAPEKLSRASDMKDTQLLKKIKEAIGKIPAATKEPEEQTACHGPSGCLSNSLQVKGNTVCDGSVFTSDLMSDWSISSFSTFTSRDEQDFRNGLAALDANIARLQKSLRTGLLEK
partner: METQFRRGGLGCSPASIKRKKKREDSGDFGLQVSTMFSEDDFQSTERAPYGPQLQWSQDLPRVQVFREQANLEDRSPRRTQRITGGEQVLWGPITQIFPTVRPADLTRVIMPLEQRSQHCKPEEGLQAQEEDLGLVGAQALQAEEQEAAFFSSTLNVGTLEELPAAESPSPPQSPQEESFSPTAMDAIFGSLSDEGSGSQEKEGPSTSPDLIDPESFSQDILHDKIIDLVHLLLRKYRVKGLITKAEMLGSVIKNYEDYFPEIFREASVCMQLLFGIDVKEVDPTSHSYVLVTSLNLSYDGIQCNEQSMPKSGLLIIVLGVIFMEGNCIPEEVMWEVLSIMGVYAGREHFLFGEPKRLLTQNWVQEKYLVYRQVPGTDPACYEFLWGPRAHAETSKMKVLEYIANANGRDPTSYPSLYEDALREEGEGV
B3: Zinc finger protein ZXDC (Homo sapiens), Q2QGD7 (parent)
chain: MDLPALLPAPTARGGQHGGGPGPLRRAPAPLGASPARRRLLLVRGPEDGGPGARPGEASGPSPPPAEDDSDGDSFLVLLEVPHGGAAAEAAGSQEAEPGSRVNLASRPEQGPSGPAAPPGPGVAPAGAVTISSQDLLVRLDRGVLALSAPPGPATAGAAAPRRAPQASGPSTPGYRCPEPQCALAFAKKHQLKVHLLTHGGGQGRRPFKCPLEGCGWAFTTSYKLKRHLQSHDKLRPFGCPVGGCGKKFTTVYNLKAHMKGHEQESLFKCEVCAERFPTHAKLSSHQRSHFEPERPYKCDFPGCEKTFITVSALFSHNRAHFREQELFSCSFPGCSKQYDKACRLKIHLRSHTGERPFICDSDSCGWTFTSMSKLLRHRRKHDDDRRFTCPVEGCGKSFTRAEHLKGHSITHLGTKPFECPVEGCCARFSARSSLYIHSKKHVQDVGAPKSRCPVSTCNRLFTSKHSMKAHMVRQHSRRQDLLPQLEAPSSLTPSSELSSPGQSELTNMDLAALFSDTPANASGSAGGSDEALNSGILTIDVTSVSSSLGGNLPANNSSLGPMEPLVLVAHSDIPPSLDSPLVLGTAATVLQQGSFSVDDVQTVSAGALGCLVALPMKNLSDDPLALTSNSNLAAHITTPTSSSTPRENASVPELLAPIKVEPDSPSRPGAVGQQEGSHGLPQSTLPSPAEQHGAQDTELSAGTGNFYLESGGSARTDYRAIQLAKEKKQRGAGSNAGASQSTQRKIKEGKMSPPHFHASQNSWLCGSLVVPSGGRPGPAPAAGVQCGAQGVQVQLVQDDPSGEGVLPSARGPATFLPFLTVDLPVYVLQEVLPSSGGPAGPEATQFPGSTINLQDLQ

Variants of: B1
Conditions: with rbm4b_human RBM4B

| Variant | effect of a mutation on the interaction |
| --- | --- |
| M1032R | disrupting interaction strength |

Variants of: B2
Conditions: with magab_human MAGEA11, P43364

| Variant | effect of a mutation on the interaction |
| --- | --- |
| I476T | with no effect |

Variants of: B3
Conditions: with wdr5_human WDR5, P61964

| Variant | effect of a mutation on the interaction |
| --- | --- |
| T589M | with no effect |
